According to article PMC10786891, “Massively parallel profiling of RNA-targeting CRISPR-Cas13d”:

Biological target: T1, EsCas13d, nuclease-dead (Eubacterium siraeum, UniProt B0MS50, R295A;H300A;R849A;H854A)
T1 sequence: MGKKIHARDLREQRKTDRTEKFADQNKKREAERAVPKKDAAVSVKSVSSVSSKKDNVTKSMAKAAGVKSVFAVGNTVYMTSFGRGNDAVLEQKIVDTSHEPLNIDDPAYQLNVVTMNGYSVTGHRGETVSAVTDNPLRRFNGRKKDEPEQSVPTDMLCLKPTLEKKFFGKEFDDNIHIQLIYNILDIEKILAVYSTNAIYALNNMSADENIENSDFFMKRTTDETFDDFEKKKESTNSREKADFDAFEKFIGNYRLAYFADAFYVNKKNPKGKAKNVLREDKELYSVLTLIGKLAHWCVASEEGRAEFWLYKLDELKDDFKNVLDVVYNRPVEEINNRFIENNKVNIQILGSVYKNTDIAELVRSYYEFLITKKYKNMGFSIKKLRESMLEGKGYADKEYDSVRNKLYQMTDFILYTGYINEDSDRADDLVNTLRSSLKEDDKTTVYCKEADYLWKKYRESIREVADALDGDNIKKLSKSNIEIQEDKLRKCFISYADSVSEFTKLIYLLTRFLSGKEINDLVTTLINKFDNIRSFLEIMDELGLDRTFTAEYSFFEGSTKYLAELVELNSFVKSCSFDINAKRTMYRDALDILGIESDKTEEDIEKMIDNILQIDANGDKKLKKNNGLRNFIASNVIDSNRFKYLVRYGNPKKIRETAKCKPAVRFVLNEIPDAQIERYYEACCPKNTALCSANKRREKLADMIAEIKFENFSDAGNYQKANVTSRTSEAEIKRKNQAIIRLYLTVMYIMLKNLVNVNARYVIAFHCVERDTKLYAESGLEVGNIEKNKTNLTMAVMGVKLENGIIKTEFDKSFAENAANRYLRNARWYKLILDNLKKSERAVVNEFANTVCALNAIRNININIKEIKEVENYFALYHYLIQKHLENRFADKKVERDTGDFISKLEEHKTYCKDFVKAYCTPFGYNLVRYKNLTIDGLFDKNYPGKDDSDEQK
Assay: crRNA (strand 1, pre-loaded); Mg2+; 40 mM Tris-HCl pH 7.5, 150 mM NaCl, 6 mM MgCl2, 1 mM DTT, 0.1% Tween-20, 0.2 mg/ml BSA; 25 C; 10 min per concentration, then washed
Conditions: tags: His6-TwinStrep-SUMO cleaved; N-terminal SNAP kept (SNAP-Surface 488); label: 3' end held by stalled T7 RNA polymerase

| Binder | Kd [nM] |
| --- | --- |
| target 1 insC 3' of 13,insG 3' of 1 (mixed) RNA 1: CACCCGUGCAAAAAUGCAGGGGUCUAAAACUGAGCGGAUAACCUCUCUAUGG RNA 2: GGGAAUGGAUCCACAUCUACGAAUUCGUACCAUAGAGAGCGUUAUCCGCUCAGCCGAGAUCGGAAGAGCACACGU | 9.17 ± 0.3 |
| target 1 insG 3' of 4,insG 3' of 4 (mixed) RNA 1: CACCCGUGCAAAAAUGCAGGGGUCUAAAACUGAGCGGAUAACCUCUCUAUGG RNA 2: GGGAAUGGAUCCACAUCUACGAAUUCGUACCAUAGAGAGGUUAUCCGCGGUCACCGAGAUCGGAAGAGCACACGU | 5.72 ± 0.26 |
| target 1 insU 3' of 7,insG 3' of 4 (mixed) RNA 1: CACCCGUGCAAAAAUGCAGGGGUCUAAAACUGAGCGGAUAACCUCUCUAUGG RNA 2: GGGAAUGGAUCCACAUCUACGAAUUCGUACCAUAGAGAGGUUAUCUCGCGUCACCGAGAUCGGAAGAGCACACGU | 7.41 ± 0.26 |
| target 1 A1C,U8C (mixed) RNA 1: CACCCGUGCAAAAAUGCAGGGGUCUAAAACUGAGCGGAUAACCUCUCUAUGG RNA 2: GGGAAUGGAUCCACAUCUACGAAUUCGUACCAUAGAGAGGUUACCCGCUCCCCGAGAUCGGAAGAGCACACGU | 8.1 ± 0.4 |
| target 1 G5C,U19G (mixed) RNA 1: CACCCGUGCAAAAAUGCAGGGGUCUAAAACUGAGCGGAUAACCUCUCUAUGG RNA 2: GGGAAUGGAUCCACAUCUACGAAUUCGUACCAGAGAGAGGUUAUCCCCUCACCGAGAUCGGAAGAGCACACGU | 30 ± 4 |
| target 1 C7G,A14G (mixed) RNA 1: CACCCGUGCAAAAAUGCAGGGGUCUAAAACUGAGCGGAUAACCUCUCUAUGG RNA 2: GGGAAUGGAUCCACAUCUACGAAUUCGUACCAUAGAGGGGUUAUGCGCUCACCGAGAUCGGAAGAGCACACGU | 17.7 ± 1.2 |
| target 1 insA 3' of 5 (mixed) RNA 1: CACCCGUGCAAAAAUGCAGGGGUCUAAAACUGAGCGGAUAACCUCUCUAUGG RNA 2: GGGAAUGGAUCCACAUCUACGAAUUCGUACCAUAGAGAGGUUAUCCGACUCACCGAGAUCGGAAGAGCACACGU | 6.2 ± 0.4 |
| target 1 insG 3' of 18,insA 3' of 11 (mixed) RNA 1: CACCCGUGCAAAAAUGCAGGGGUCUAAAACUGAGCGGAUAACCUCUCUAUGG RNA 2: GGGAAUGGAUCCACAUCUACGAAUUCGUACCAUAGGAGAGGUAUAUCCGCUCACCGAGAUCGGAAGAGCACACGU | 89 ± 11 |
| target 1 insA 3' of 21,insG 3' of 2 (mixed) RNA 1: CACCCGUGCAAAAAUGCAGGGGUCUAAAACUGAGCGGAUAACCUCUCUAUGG RNA 2: GGGAAUGGAUCCACAUCUACGAAUUCGUACCAAUAGAGAGGUUAUCCGCUCGACCGAGAUCGGAAGAGCACACGU | 16 ± 0.9 |
| target 1 U11A,C21U (mixed) RNA 1: CACCCGUGCAAAAAUGCAGGGGUCUAAAACUGAGCGGAUAACCUCUCUAUGG RNA 2: GGGAAUGGAUCCACAUCUACGAAUUCGUACUAUAGAGAGGAUAUCCGCUCACCGAGAUCGGAAGAGCACACGU | 8.3 ± 0.5 |
| target 1 insC 3' of 13,insA 3' of 2 (mixed) RNA 1: CACCCGUGCAAAAAUGCAGGGGUCUAAAACUGAGCGGAUAACCUCUCUAUGG RNA 2: GGGAAUGGAUCCACAUCUACGAAUUCGUACCAUAGAGAGCGUUAUCCGCUCAACCGAGAUCGGAAGAGCACACGU | 9 ± 0.5 |
| target 1 insC 3' of 13,insC 3' of 1 (mixed) RNA 1: CACCCGUGCAAAAAUGCAGGGGUCUAAAACUGAGCGGAUAACCUCUCUAUGG RNA 2: GGGAAUGGAUCCACAUCUACGAAUUCGUACCAUAGAGAGCGUUAUCCGCUCACCCGAGAUCGGAAGAGCACACGU | 8.9 ± 0.6 |
| target 1 A1U,U8C (mixed) RNA 1: CACCCGUGCAAAAAUGCAGGGGUCUAAAACUGAGCGGAUAACCUCUCUAUGG RNA 2: GGGAAUGGAUCCACAUCUACGAAUUCGUACCAUAGAGAGGUUACCCGCUCUCCGAGAUCGGAAGAGCACACGU | 11.2 ± 0.5 |
| target 1 A20U,C21U (mixed) RNA 1: CACCCGUGCAAAAAUGCAGGGGUCUAAAACUGAGCGGAUAACCUCUCUAUGG RNA 2: GGGAAUGGAUCCACAUCUACGAAUUCGUACUUUAGAGAGGUUAUCCGCUCACCGAGAUCGGAAGAGCACACGU | 19.5 ± 1.2 |
| target 1 C7G,U10C (mixed) RNA 1: CACCCGUGCAAAAAUGCAGGGGUCUAAAACUGAGCGGAUAACCUCUCUAUGG RNA 2: GGGAAUGGAUCCACAUCUACGAAUUCGUACCAUAGAGAGGUCAUGCGCUCACCGAGAUCGGAAGAGCACACGU | 24.6 ± 2.2 |
| target 1 insG 3' of 19,insU 3' of 4 (mixed) RNA 1: CACCCGUGCAAAAAUGCAGGGGUCUAAAACUGAGCGGAUAACCUCUCUAUGG RNA 2: GGGAAUGGAUCCACAUCUACGAAUUCGUACCAUGAGAGAGGUUAUCCGCUUCACCGAGAUCGGAAGAGCACACGU | 53 ± 6 |
| target 1 del9,del14 (mixed) RNA 1: CACCCGUGCAAAAAUGCAGGGGUCUAAAACUGAGCGGAUAACCUCUCUAUGG RNA 2: GGGAAUGGAUCCACAUCUACGAAUUCGUACCAUAGAGGGUUUCCGCUCACCGAGAUCGGAAGAGCACACGU | 28 ± 1.8 |
| target 1 del3,del17 (mixed) RNA 1: CACCCGUGCAAAAAUGCAGGGGUCUAAAACUGAGCGGAUAACCUCUCUAUGG RNA 2: GGGAAUGGAUCCACAUCUACGAAUUCGUACCAUAAGAGGUUAUCCGCCACCGAGAUCGGAAGAGCACACGU | 67 ± 17 |
| target 1 C6G,U11G (mixed) RNA 1: CACCCGUGCAAAAAUGCAGGGGUCUAAAACUGAGCGGAUAACCUCUCUAUGG RNA 2: GGGAAUGGAUCCACAUCUACGAAUUCGUACCAUAGAGAGGGUAUCGGCUCACCGAGAUCGGAAGAGCACACGU | 9.6 ± 0.5 |
| target 1 U19A,A20U (mixed) RNA 1: CACCCGUGCAAAAAUGCAGGGGUCUAAAACUGAGCGGAUAACCUCUCUAUGG RNA 2: GGGAAUGGAUCCACAUCUACGAAUUCGUACCUAAGAGAGGUUAUCCGCUCACCGAGAUCGGAAGAGCACACGU | 47 ± 4 |
| target 1 insG 3' of 19,insA 3' of 10 (mixed) RNA 1: CACCCGUGCAAAAAUGCAGGGGUCUAAAACUGAGCGGAUAACCUCUCUAUGG RNA 2: GGGAAUGGAUCCACAUCUACGAAUUCGUACCAUGAGAGAGGUUAAUCCGCUCACCGAGAUCGGAAGAGCACACGU | 59 ± 5 |
| target 1 U8C (mixed) RNA 1: CACCCGUGCAAAAAUGCAGGGGUCUAAAACUGAGCGGAUAACCUCUCUAUGG RNA 2: GGGAAUGGAUCCACAUCUACGAAUUCGUACCAUAGAGAGGUUACCCGCUCACCGAGAUCGGAAGAGCACACGU | 11.2 ± 0.4 |
| target 1 C6A,G13A (mixed) RNA 1: CACCCGUGCAAAAAUGCAGGGGUCUAAAACUGAGCGGAUAACCUCUCUAUGG RNA 2: GGGAAUGGAUCCACAUCUACGAAUUCGUACCAUAGAGAAGUUAUCAGCUCACCGAGAUCGGAAGAGCACACGU | 6.6 ± 0.4 |
| target 1 A1U,U11A (mixed) RNA 1: CACCCGUGCAAAAAUGCAGGGGUCUAAAACUGAGCGGAUAACCUCUCUAUGG RNA 2: GGGAAUGGAUCCACAUCUACGAAUUCGUACCAUAGAGAGGAUAUCCGCUCUCCGAGAUCGGAAGAGCACACGU | 37.8 ± 3 |
| target 1 insU 3' of 12,insA 3' of 12 (mixed) RNA 1: CACCCGUGCAAAAAUGCAGGGGUCUAAAACUGAGCGGAUAACCUCUCUAUGG RNA 2: GGGAAUGGAUCCACAUCUACGAAUUCGUACCAUAGAGAGGUAUUAUCCGCUCACCGAGAUCGGAAGAGCACACGU | 10.1 ± 0.5 |
| target 1 insU 3' of 21,insC 3' of 20 (mixed) RNA 1: CACCCGUGCAAAAAUGCAGGGGUCUAAAACUGAGCGGAUAACCUCUCUAUGG RNA 2: GGGAAUGGAUCCACAUCUACGAAUUCGUACCUACUAGAGAGGUUAUCCGCUCACCGAGAUCGGAAGAGCACACGU | 13.5 ± 1 |
| target 1 insC 3' of 13,insU 3' of 1 (mixed) RNA 1: CACCCGUGCAAAAAUGCAGGGGUCUAAAACUGAGCGGAUAACCUCUCUAUGG RNA 2: GGGAAUGGAUCCACAUCUACGAAUUCGUACCAUAGAGAGCGUUAUCCGCUCAUCCGAGAUCGGAAGAGCACACGU | 11.5 ± 1.1 |
| target 1 U8C,G12U (mixed) RNA 1: CACCCGUGCAAAAAUGCAGGGGUCUAAAACUGAGCGGAUAACCUCUCUAUGG RNA 2: GGGAAUGGAUCCACAUCUACGAAUUCGUACCAUAGAGAGUUUACCCGCUCACCGAGAUCGGAAGAGCACACGU | 10.7 ± 0.6 |
